{"source": "paper PMC3203615", "molecular_target": "isolated C-terminal domain (CTD, 213-288) of HIV-1 integrase (HIV-1)", "experiment": "SEC"}
{"substance": "isolated C-terminal domain (CTD, 213-288) of HIV-1 integrase (domain or fragment)", "values": [{"measurement": "stoichiometry N", "result": 2}]}
